Experimental data reported in article PMC10583366, “OsCBL1 modulates rice nitrogen use efficiency via negative regulation of OsNRT2.2 by OsCCA1”.

Molecular target: OsCCA1 (His-OsCCA1; Nhd1) (Oryza sativa, UniProt A0A0P0XBU0 1-719)
Experiment: EMSA; 10 mM Tris-HCl pH 7.5, 50 mM KCl, 1 mM DTT, 4 C, 40 min; 4% TBE-PAGE at 4 C, ethidium bromide stain
Details: protein: recombinant; tags: His (pET-28a); ATATCT (motif)

Chain of OsCCA1 (His-OsCCA1; Nhd1) (A0A0P0XBU0 whole entry): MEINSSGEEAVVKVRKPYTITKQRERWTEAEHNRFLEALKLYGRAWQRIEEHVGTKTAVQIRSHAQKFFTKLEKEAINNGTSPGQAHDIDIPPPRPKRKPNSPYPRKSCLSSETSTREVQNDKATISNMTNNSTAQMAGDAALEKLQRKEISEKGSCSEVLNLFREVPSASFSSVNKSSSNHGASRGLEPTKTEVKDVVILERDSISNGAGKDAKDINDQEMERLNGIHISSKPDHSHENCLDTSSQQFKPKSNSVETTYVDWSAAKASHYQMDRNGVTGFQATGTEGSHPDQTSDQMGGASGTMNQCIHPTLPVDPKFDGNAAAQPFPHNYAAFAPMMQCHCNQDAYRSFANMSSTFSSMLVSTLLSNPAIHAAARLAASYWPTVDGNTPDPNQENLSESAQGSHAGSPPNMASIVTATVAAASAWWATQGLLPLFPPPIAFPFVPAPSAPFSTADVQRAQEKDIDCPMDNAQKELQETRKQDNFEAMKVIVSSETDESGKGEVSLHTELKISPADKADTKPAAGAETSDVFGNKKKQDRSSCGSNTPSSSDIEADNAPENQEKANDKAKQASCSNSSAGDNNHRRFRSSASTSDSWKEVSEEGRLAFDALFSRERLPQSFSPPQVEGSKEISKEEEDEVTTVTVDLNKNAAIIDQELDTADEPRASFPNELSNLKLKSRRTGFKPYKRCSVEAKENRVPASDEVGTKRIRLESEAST

Binder	binding result
P6 (dsDNA) DNA 1: TAAAAAATACCTGCAGGTGCTCTAGTTCAACTGAAGGGCCAGATTTAGCAATATCTGAGTCCTTCAAATAAATTCATCAACTAACAAACTTCAACCGAAG DNA 2: CTTCGGTTGAAGTTTGTTAGTTGATGAATTTATTTGAAGGACTCAGATATTGCTAAATCTGGCCCTTCAGTTGAACTAGAGCACCTGCAGGTATTTTTTA	binds
P7 (dsDNA) DNA 1: ATATGATGTGTATGGGAATTGGGATGCTGAAAACAAATGCAACTGGACACATATCTGCAACTTGTAAATAACTTTTATTTCTTTTAATGGAAAAAATGTG DNA 2: CACATTTTTTCCATTAAAAGAAATAAAAGTTATTTACAAGTTGCAGATATGTGTCCAGTTGCATTTGTTTTCAGCATCCCAATTCCCATACACATCATAT	binds
P8 (dsDNA) DNA 1: CTTCAGGCCGTCATGAAAAAAAACCAGTGCATATCTCATGGCAAGAAGAAGTGCAGGTTGTGAA DNA 2: TTCACAACCTGCACTTCTTCTTGCCATGAGATATGCACTGGTTTTTTTTCATGACGGCCTGAAG	binds
